The chains are these.
B1: TPR 5TU (parent)
chain: GGAUCUUCUCGAUCUAACAAAAAAGACAAAUCUGCCACAAAGCUUGAGAGCAUCUUCGGAUGCAGAGGCGGCAGCCUUCGGUGGCGCGAUAGCGCCAACGUUCUCAACUAUGACACGCAAAACGCGUGCUCCGUUGAAUGGAGUUUAUCAUG

Variants at the floor of the assay were thinned out.

In this series the parent is B1. As to the kind of experiment: polymerase ribozyme fitness, log enrichment relative to wild type (log ratio); higher = more active; in vitro selection for triplet polymerase activity. The method, boiled down: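 Both subunits of a heterodimeric triplet polymerase ribozyme were given their own mutant library, built by PCR and transcribed. Each library was annealed with a biotinylated primer, the partner subunit and triplets, incubated frozen at −7 °C, and its extended constructs gel-excised, captured on streptavidin beads and amplified by RT-PCR, all in one round done in triplicate. Fitness is the logarithm of genotype enrichment relative to wild-type enrichment, with replicates averaged by inverse-variance weighting. That logarithm is base 2, and Illumina-sequenced genotypes needed ≥10 input reads and ≥1 read per output.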
With GGAUCUUCUCGAUCUAACAAAAAAGACAAAUCUGCCACAAAGCUUAAGAGCAUCUUCGGAUGCAGAGGCGGCAGCCUUCGGUGGCGCGAUAGCGCCAACGUUCUCAACUAUGACACGCAAAACCCGUGCUCCGUUGAAUGGAGUUUAUCAUG, the “polymerase ribozyme fitness (log ratio)” value was -1.46.

GGAUCUUCUCGAUCUAACAAAAAAGACAAAUCUGCCACGAAGCUUGAGAGCAUCUACGGAUGCAGAGGCGGCAGCCUUCGGUGGCGCGAUAGCUCCAACGUUCUCAACUAUGACACGCAUAACGCGUGCUCCGUUGAAUGCAGUUUAUCAUG: the “polymerase ribozyme fitness (log ratio)” value is -3.09.

GGAUCUUCUCGAUCUAACAAAAAAGACAAAUCUGCCACAAAGCUUGAGAGCAUCUUCGGAUGCAGAGGCGGCAGUCUUCGGUGGCGCGAUAGCGCCAACGUUCUCAACUAUGUCACGCAAAACUCGUGCUCCGUUGAAUGGAGCUUAUCAUG: the “polymerase ribozyme fitness (log ratio)” value is at most -4.2.

For the variant GGAUCUUCUCGAUCUAAGCAAAAAGACAAAUCGGCUACAAAGCUUAAGAGCAUCUUCGGAUGCAGAGGCGGCAGCCUUCGGUGGCGUGAUAGCGCCAACGUUCUCAACUGUGACACGCAAAACGCGUGCUCCGUUGAAUGGAGUUUAUCAUG, the “polymerase ribozyme fitness (log ratio)” value was at most -4.2.

Consider GGAUCGUCUCGAUCUAACAAAAAAGACAAAUCUGCCACGAAGCUUGAGCGCAUCUUCGGAUGCAGAGGCGGCAGCCUUCGGUGGCGCGAUAGCGCCAACGUUCUCAACUAUGACACGCAAAACGCGUGCUCCGUUGAAUGGAGUUUAUCAUG, for which the “polymerase ribozyme fitness (log ratio)” value was at most -4.2.

With GGAUCUUCUCGAUCUAACAAAAAAGACAAAUCUGCCACAAAGCUUGAGAGCAUCUUCGCAUGCAGAGGCGGCAGCCUUCGGUGGCGCGAUAGCGCCAACGUUCUCAACUAUGACACGCAAAACGCGUGCUCCGUUGAAAGGAGUUUAUCAUG, the “polymerase ribozyme fitness (log ratio)” value is at most -4.2.

On to GGAUCUUCUCGAUCUAACAAAAAAGACAAAUCUGCCACAAAGCUUGAGAGCAUCUUCGGAUGCAGAGGCGGCAGCCUUCGGUGGCGCGAUAGCGCCAACGUUCUCAACUAUGACACGCGUAACGCGUGCUCCGUUGAAUGGAGUUUAUCAUG, for which the “polymerase ribozyme fitness (log ratio)” value was 0.0433.

Regarding GGAUCUUCUCGAUCUAACAAAAAAGACAAAUCUGCCACAAAGCUUGAGAGCAUCUUCGGAUGCAGAGGCCGCAGCCUUCGGUGGCGCGAUAGCGCCAACGUUCUCAACUAUGACACGCAAAACGCGUGCUCCGUUGAAUGGAGUUUAUCAUG, the “polymerase ribozyme fitness (log ratio)” value was -2.92.

As to GGAUGUUCUCGUUCUAACAAAAAAGAGAAAUCUGCCACAAAGCUUGAGCGCAUUUUCGGAAGCAGAGGCGGCAGCCUUCGGUGGCGCGAUAGGGACAACGUUCUCAACUAUGACACGCGAAACGCGUGCUCCGAUGAAUGGAGUUUAUCCUG, the “polymerase ribozyme fitness (log ratio)” value is at most -4.2.

As for GGAUCUUCUCGAUCUAACAAAAAAGUCAAAUCUGCCACAAAGCUUGAGAGCAUCUUCGGAUGCAGAGGCGGCAGCCUUCGGUCGCGCGAUAGCGCCAACGUUCUCAACUAUGACACGCAAAACGCGUACUCCGGAGAAUGGAGUUCAUCAUG, the “polymerase ribozyme fitness (log ratio)” value is at most -4.2.

Consider GGAUCUUCUCGAUCUAACAAAAAAGACAAAUCUGCCACAAAGCUUGUGAGCAUCUUCGGAUGCGGAGGCGGCAGCCUUCGGUGGCGCGAUAGAGCCAACGUUCUCAACUAUGACACGCAAAACGCGUGCUCCGUUGAAUGGAGUUUAUCAUG, for which the “polymerase ribozyme fitness (log ratio)” value is at most -4.2.

With GGAUCUUCUCGAUCUAACAAAAAAGACAAAUCUGCCACAACGCUUGAGAACAUCGACGGAUGCAUAGACGGCAGCCUUCGGUGGCGCGAUAGCGCCAACGUACUCAACUAUGACACGCAAAACGCGUGCUCCGUUGAAUUGAGUUUAUCAUG, the “polymerase ribozyme fitness (log ratio)” value was at most -4.2.

GGAUCUUCUCGAUCUAACAAAAAAGACAAAUCUGCCACAAAGCUUGAGAGCAUCUUCGGAUGCAGAGGCGGCAGCCUUCGGUGGCGCGAUAGCGCCAAGGUUCUCAACUAUGACACGCAAAACGCGUGCUCCGUUGAAUGGAGUUUAUCAUG: the “polymerase ribozyme fitness (log ratio)” value was -0.744.

With GGAUCUUCUCGAUCUAACAAAAAAGACAAAUCUGCCACAAAGCUUGAGACCAUCUACGGAUCCAGAGGCGGUAGCCUUCGGUGGCGCGAUAGCGUCAACGUUCUCAACUAUGACACGCAAAACGCGUGCUCCGUUGAAUGGAGUUUAUCAUG, the “polymerase ribozyme fitness (log ratio)” value was at most -4.2.

For the variant GGAUCUUCUCGACCUAACAAAAAAGAAAAAUCUGCCACAAAGAUUGAGAGCAUCUUCGGAUGCAGAGGCGGCAGCCUUCGGUGGCUCGAUAGCGCCAACGUUCUCAACUAUGACACGCAAAACGCGUGCUCCGUUGAAUGGAGUUUAUCAUG, the “polymerase ribozyme fitness (log ratio)” value is at most -4.2.

On to GGAUCUUCUCGAUCUAACAUAAAAGACAAAUCUGCCACAAAGCUUGAGAGCGACAUCGGAUGCAGAGGAGGCAGCCUUCGGUGGCGCGAUAGCGCCAACGUUCUCAACUGUGACACGCAAAACGCGUGCUCCGUUGAAUGGAGUUGAUCAUG, for which the “polymerase ribozyme fitness (log ratio)” value is at most -4.2.

With GGAUCUUCUCGAUCUAACAAAAAAGACAAAUCUGCCACAAAGCUUGAGAGCAUCUUCGGAUGCAGAGGCGGCAGCCUUCGGUGGCGCGAUAGAGCCAACGUUCUCAACUAUGACACGCAAAACGCGUGCUCCCUUGAAUGGAGUUUAUCAUG, the “polymerase ribozyme fitness (log ratio)” value was -4.09.

On to GGAUCUUCUCGAUCUAACAAAAAAGACAAAUCUGGCACAAAGCUUGAGAGCAUCUUCGGAUGCAGAGGCGGCAGCCUUCGGUCGCGCGAUAGCGCCAACGUUCUCAACUAUGACACGCAAAACGCGUGCUCCGUUGAAUGGAGUUUAUCAUG, for which the “polymerase ribozyme fitness (log ratio)” value is -4.19.

As for GGAUCUUCUCGAUCUAACAAAAAAGACAAAUCUGCCACAAAGCUUGAGAGCAUCUUCGGAUGCAGAGGCGGCAGCCUUCGGUAGCGCGAUAGCGCCAACGUUCUCAACUAUGACACGCAAAACGUGUGCUCCGUUGAAUGGAGUUUAUCAUG, the “polymerase ribozyme fitness (log ratio)” value was -1.29.

These data come from the RNAGym collection of RNA variant scans (doi:10.1073/pnas.2313332121).
